From patent US20150071927A1 (UNIVERSITY OF HONG KONG, published 2015) come the findings set out here.

The target in experiment [1] is T1, membrane-associated IGF-IR on SKOV-3 cells (human, UniProt P08069 31-936). As to the kind of experiment: flow cytometry on SKOV-3 cells, MFI against antibody concentration. How it is done: (§1) MCF-7 or SKOV-3 cells were detached using enzyme-free cell-disassociation buffer (Invitrogen), washed twice with PBS, and incubated at 4° C. for 2 h with antibodies in fluorescence-activated cell sorting (FACS) buffer (1% FBS in PBS). Cell surface bound antibodies were detected using PE conjugated to anti-human Fc by incubation at 4° C. for 1 h followed by washing twice with FACS buffer and fixation with 2% paraformaldehyde in FACS buffer. The stained cells were analyzed with a BD flow cytometer and FlowJo software.
T1 sequence (P08069 31-936 limits assumed): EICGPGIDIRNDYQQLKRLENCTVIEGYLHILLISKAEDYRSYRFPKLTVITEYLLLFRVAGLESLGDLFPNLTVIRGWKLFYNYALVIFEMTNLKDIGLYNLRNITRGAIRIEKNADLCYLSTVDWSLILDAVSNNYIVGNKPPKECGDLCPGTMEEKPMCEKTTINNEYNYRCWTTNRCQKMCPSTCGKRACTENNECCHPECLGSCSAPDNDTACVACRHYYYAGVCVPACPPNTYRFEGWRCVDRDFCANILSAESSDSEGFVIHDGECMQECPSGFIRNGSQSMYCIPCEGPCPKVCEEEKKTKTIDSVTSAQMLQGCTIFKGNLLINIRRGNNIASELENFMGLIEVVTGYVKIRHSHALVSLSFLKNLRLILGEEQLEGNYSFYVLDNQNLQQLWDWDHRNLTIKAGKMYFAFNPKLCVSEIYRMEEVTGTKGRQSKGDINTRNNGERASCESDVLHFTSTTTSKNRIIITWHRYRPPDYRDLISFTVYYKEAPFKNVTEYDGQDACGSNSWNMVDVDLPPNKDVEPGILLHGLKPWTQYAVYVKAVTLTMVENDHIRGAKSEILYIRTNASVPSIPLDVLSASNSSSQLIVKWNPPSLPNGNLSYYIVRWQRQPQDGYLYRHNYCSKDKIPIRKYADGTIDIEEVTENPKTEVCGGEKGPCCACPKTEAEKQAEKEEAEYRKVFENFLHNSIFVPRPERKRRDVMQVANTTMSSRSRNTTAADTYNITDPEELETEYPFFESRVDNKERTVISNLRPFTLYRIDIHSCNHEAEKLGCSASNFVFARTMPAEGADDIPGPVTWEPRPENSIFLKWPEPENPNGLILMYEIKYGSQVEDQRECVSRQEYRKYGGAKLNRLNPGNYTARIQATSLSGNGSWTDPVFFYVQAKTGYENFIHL

In experiment [2] the target is T1, membrane-associated IGF-IR on SKOV-3 …. As to the kind of experiment: flow cytometry on SKOV-3 cells. How it is done:
as §1

The target in experiment [3] is T2, recombinant IGF-IR ectodomain (His-tagged) (human, UniProt P08069 31-935).
T2 construct: also called recombinant IGF-IR (coated); recombinant IGF-IR ectodomains
T2 sequence (P08069 31-935): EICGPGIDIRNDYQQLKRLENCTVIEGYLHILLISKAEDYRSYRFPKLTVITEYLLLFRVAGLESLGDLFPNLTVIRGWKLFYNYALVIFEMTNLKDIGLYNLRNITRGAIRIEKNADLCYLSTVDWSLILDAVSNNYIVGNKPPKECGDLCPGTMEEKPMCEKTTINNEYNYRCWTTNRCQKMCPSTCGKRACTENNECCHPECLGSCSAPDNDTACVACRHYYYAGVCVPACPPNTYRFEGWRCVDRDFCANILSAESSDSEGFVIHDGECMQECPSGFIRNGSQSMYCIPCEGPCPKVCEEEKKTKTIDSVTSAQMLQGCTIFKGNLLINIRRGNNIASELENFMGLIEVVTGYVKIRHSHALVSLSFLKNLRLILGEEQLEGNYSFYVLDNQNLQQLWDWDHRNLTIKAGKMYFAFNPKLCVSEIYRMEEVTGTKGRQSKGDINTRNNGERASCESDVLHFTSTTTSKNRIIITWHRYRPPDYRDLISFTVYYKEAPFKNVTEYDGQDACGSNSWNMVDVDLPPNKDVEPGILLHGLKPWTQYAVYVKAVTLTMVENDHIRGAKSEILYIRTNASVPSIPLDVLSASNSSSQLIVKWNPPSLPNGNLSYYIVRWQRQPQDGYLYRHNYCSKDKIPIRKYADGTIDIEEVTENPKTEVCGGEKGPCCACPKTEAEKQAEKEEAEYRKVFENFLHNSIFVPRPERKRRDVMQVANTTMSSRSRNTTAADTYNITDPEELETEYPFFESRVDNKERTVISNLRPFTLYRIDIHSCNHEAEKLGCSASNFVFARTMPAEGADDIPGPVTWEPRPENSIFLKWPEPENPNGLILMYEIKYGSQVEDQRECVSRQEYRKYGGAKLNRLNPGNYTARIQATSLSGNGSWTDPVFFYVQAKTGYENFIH
As to the kind of experiment: indirect ELISA, IGF-IR ectodomain coated, biotinylated HER2 ectodomain detected with streptavidin-HRP. How it is done: Recombinant ectodomains of IGF-IR or HER2 ([…] in both cases) were coated on 96-well high-binding ELISA plates at 4° C. overnight. The plates were washed and blocked with 3% BSA in PBS at 37° C. for 2 h. Two-fold serially diluted mAb Herceptin or m590 were added to the wells and the bound mAbs were detected by HRP conjugated anti-human Fc as secondary antibody and TMB substrate. Optical density at 450 nm (OD450 nm) was measured after color development at RT for 30 min. In the case of Bi-Ab, recombinant IGF-IR ectodomains were coated on the plates. Following addition of 2-fold serially diluted Bi-Ab and incubation at RT for 2 h, plates were washed and biotinylated HER2 ectodomain (2 μg/ml) was added to each well. Bound HER2 ectodomains were detected by HRP conjugated streptavidin and TMB substrate.
Following addition of the anti-HER2/anti-IGF-IR antibodies to recombinant IGF-IR-coated plates biotinylated recombinant HER2 ectodomains were added. Bound HER2 ectodomains were detected by HRP conjugated streptavidin and TMB substrate.
(In general: In an ELISA, binding on a coated surface is turned into a signal by an enzyme label.)

B1: m590 anti-IGF-IR mouse/human chimeric antibody (antibody, human IgG1, kappa, V domains shown)
VH: EVQLQQSGPELEQPGSSVKISCKASGYSFTAYYMHWVKQSHGKSLEWIGRINPDNGGNSYNQKFKGKAILTVDKSSNTAYMELRSLTSEDSAVYYCAKSTSYDYDGYWYFDVWGAGTTVTVSS
VL: QIVLTQSPAIMSASPGEKVTITCSASSSVSYIHWFQQKPGTSPKVWIYGTSNLASGVPARFTGSGSGTSYSLTISRMEAEDAATYYCQQRSSYPFTFGSGTKLEIKR
notes: also called human/mouse chimeric mAb m590
Regarding B1, the binding result in experiment [1] is recorded as “binds”.

B2: anti-HER2/anti-IGF-IR bi-specific antibody (Bi-Ab) (bispecific antibody, human IgG1, kappa)
heavy 1: not shown
light 1: not shown
heavy 2: not shown
light 2: QIVLTQSPAIMSASPGEKVTITCSASSSVSYIHWFQQKPGTSPKVWIYGTSNLASGVPARFTGSGSGTSYSLTISRMEAEDAATYYCQQRSSYPFTFGSGTKLEIKRTVAAPSVFIFPPSDEQLKSGTASVVCLLNNFYPREAKVQWKVDNALQSGNSQESVTEQDSKDSTYSLSSTLTLSKADYEKHKVYACEVTHQGLSLPVTKSLNRREC
notes: also called anti-IGF-IR/anti-HER2 hybrid IgG; copies: 1 + 1 + 1 + 1
Take B2: the binding result in experiment [2] and in experiment [3] was “binds” each time.
